# Results as given in patent US20120276102A1 (Pfizer, published 2012).
# Changes are numbered by the printed parent chain.
# T1: human gamma (γ) common chain expressed on CHO cells (human, UniProt P31785 23-369)
# T1 construct: whole, on cells; Control protein; also called human IL-2R-γ common subunit; human γ-common
# T1 sequence (looked up): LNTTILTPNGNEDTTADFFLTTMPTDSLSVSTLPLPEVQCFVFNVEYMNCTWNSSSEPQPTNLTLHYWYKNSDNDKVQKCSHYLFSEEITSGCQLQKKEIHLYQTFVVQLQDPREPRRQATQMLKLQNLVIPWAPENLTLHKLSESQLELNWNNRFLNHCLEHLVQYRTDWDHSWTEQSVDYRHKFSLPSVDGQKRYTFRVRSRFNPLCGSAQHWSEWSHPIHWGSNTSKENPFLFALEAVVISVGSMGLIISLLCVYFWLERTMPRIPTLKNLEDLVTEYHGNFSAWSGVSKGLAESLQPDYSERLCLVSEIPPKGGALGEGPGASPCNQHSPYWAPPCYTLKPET
# B1: AbP (antibody, human IgG1, V domains shown)
# VH: QVQLQESGPGLVKPSETLSLTCAVSGYSISSGYYWGWIRQPPGKGLEWIGSISHTGNTYYNPPLKSRVTISVDTSKNQFSLKLSSVTAADTAVYYCARGGGISRPEYWGQGTLVTVSS
# VL: SSELTQDPAVSVALGQTVRITCQGDSLRTYYASWYQQKPGQAPVLVIYGKHKRPSGIPDRFSGSSSGNTASLTITGAQAEDEADYYCVSRSAKGNPHVLFGGGTQLTVL
# notes: CDR3 graft, residue limits derived as for m29; also called VHP/VL20; VHPTM/VL20
# B2: AbO (antibody, human IgG1, V domains shown)
# VH: B1 VH
# VL: B1 VL with S89T
# notes: CDR3 graft, residue limits derived as for m29; also called VHP/VL16; VHPTM/VL16
# B3: parental 18A5 antibody (antibody, V domains shown)
# VH: B1 VH with P14T, Q110K
# VL: SSELTQDPPVSVALGQTVTLTCQGDSLRTYYASWYQQKSGQAPILLLYGKHKRPSGIPDRFSGSTSGDTASLTITGAQAEDEADYYCNSRDSSGNPHVLFGGGTQLTVL
# notes: also called 18A5 IgG
# B4: AbR (antibody, human IgG1, V domains shown)
# VH: B1 VH with G99F, G100M, I102F, S103G
# VL: B1 VL with S89T, A92V
# notes: CDR3 graft, residue limits derived as for m29; also called VH3/VL18; VH3DM/VL18
# B5: AbU (antibody, human IgG1, V domains shown)
# VH: B1 VH
# VL: B1 VL with V88T, S89T, A92N
# notes: CDR3 graft, residue limits derived as for m29; also called VHP/VL25; VHPTM/VL25
# B6: AbT (antibody, human IgG1, V domains shown)
# VH: B1 VH
# VL: B1 VL with S89A, A92N
# notes: CDR3 graft, residue limits derived as for m29; also called VHP/VL9; VHPTM/VL9
# B7: AbS (antibody, V domains shown)
# VH: B1 VH
# VL: B1 VL with V88M, A92I, K93W
# notes: CDR3 graft, residue limits derived as for m29; also called VHP/VL6; VHPTM/VL6
# B8: AbQ (antibody, human IgG1, V domains shown)
# VH: B1 VH with G99F, G100M, I102F, S103G
# VL: B1 VL with S89A, A92V, K93V
# notes: CDR3 graft, residue limits derived as for m29; also called VH3/VL2; VH3DM/VL2
# Molecular target: T1, human gamma (γ) common chain expressed …
# Experiment: cell-based ELISA on CHO cells transiently expressing human gamma common chain; HRP anti-human IgG, A450
# Method: (§1) FIG. 6(a-l) depicts the binding of 21 anti-IL-21R IgGs to CHO cells transiently expressing human IL-21R (FIGS. 6a-c), rat IL-21R (FIGS. 6d-f), cynomolgus monkey IL-21R (FIGS. 6g-i), and human gamma common chain (FIGS. 6j-1). CHO cells were transiently transfected with IL-21R or the control gamma common chain, and binding was detected with HRP-conjugated anti-human IgG in a cell-based ELISA.
# (§2) A subset of binding proteins was tested for binding to rat, cynomolgus monkey, human IL-21R, or human IL-2R-γ common subunit expressed transiently on the surfaces of CHO-PA-Dukx cells. Cells were transfected 48 hr prior to the assay. On the day of the assay, cells were washed gently 5× in PBS containing 0.9 mM CaCl₂ and 0.45 mM MgCl₂ (PBS/CaMg) on an automated plate washer (Titertek, Huntsville, Ala.), and blocked for 1 hr at RT in PBS/CaMg/5% nonfat dry milk. Conditioned media from transiently expressed anti-IL-21R IgGs were serially diluted in blocking buffer and added to the cells in the blocked plates for 1 hr at RT. Cells were washed 5× with PBS/CaMg and then incubated with horseradish peroxidase-conjugated anti-human IgG for 1 hr at RT. Cells were then washed 10× in PBS/CaMg and all of the wash buffer was removed. Cells were incubated with 100 μl TMB until the color reaction reached saturation, stopped with 100 μl of 0.18 M H₂SO₄, and read at A450 on a Perkin Elmer ENVISION™ plate reader.
row,Binder,binding result
1,B1,no binding (tested: 40 nM)
2,B2,no binding (tested: 40 nM)
3,B3,no binding (tested: 13 nM)
4,B4,no binding (tested: 40 nM)
5,B5,no binding (tested: 40 nM)
6,B6,no binding (tested: 40 nM)
7,B7,no binding (tested: 40 nM)
8,B8,no binding (tested: 40 nM)

# Molecular target: T2, human IL-21R extracellular domain His-Flag fusion protein (human, UniProt Q9HBE5 20-232)
# T2 construct: Biotinylated in the HTRF screen; also called hIL-21R-H/F; human IL-21R-H/F
# Experiment: SPR, Ab captured on anti-human IgG
# Method: (§3) The kinetics of binding of anti-IL-21R antibodies to human and murine IL-21R-H/F was tested on a BIACORE™ surface plasmon resonance instrument. Anti-human IgG antibodies (Invitrogen Corporation) were immobilized onto a research-grade carboxy-methyl-dextran chip (CM5) using standard amine coupling. The surface was activated with EDC/NHS for 7 min at a flow of 20 μl/min. The first flow cell was used as a reference surface to correct for bulk refractive index, matrix effects, and nonspecific binding. The anti-human-Fc antibody was diluted to 20 μg/ml in 10 mM sodium acetate buffer (pH 5.0), and 2950-3405 resonance units (RU) were captured on each of the four flow cells. Remaining activated groups were blocked with 1.0 M ethanolamine-HCl (pH 8.5).
# (§4) Anti-IL-21R antibodies were diluted to 0.1-0.2 μg/ml in HBS/EP buffer supplemented with 0.2% bovine serum albumin and loaded onto the BIACORE™ chip. Following a brief washing period, solutions of 0-100 nM human IL-21R-H/F or 10-500 nM murine IL-21R-H/F were injected over the chip at a flow rate of 50 μl/min. The association phase was run for 3 min for human and murine IL-21R kinetics, and the dissociation phase was monitored for 15 min for hIL-21R and for 5 min for mIL-21R, followed by two 10 μl injections and one 30 μl injection of glycine (pH 1.5), to regenerate a fully active capturing surface. All binding experiments were done at 25° C. in HBS/EP buffer, and the sample rack was kept at 15° C. Blank and buffer effects were subtracted for each sensorgram using double referencing.
# T2 sequence (Q9HBE5 20-232): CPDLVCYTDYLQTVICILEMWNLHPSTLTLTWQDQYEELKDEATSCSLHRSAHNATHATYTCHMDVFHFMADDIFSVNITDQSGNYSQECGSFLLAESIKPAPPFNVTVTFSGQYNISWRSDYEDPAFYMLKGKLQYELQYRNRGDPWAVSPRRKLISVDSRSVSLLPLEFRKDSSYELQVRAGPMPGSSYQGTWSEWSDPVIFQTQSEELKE
Binder,Kd [nM],koff [s⁻¹],kon [M⁻¹ s⁻¹]
B1,0.615,0.000119,194000
B2,0.475,0.000114,241000
B3,4.43,0.00108,243000
B4,0.567,9.61e-05,170000
B5,0.44,8.18e-05,186000
B6,0.379,6.78e-05,179000
B7,2.02,0.000291,144000
B8,0.213,9.34e-05,439000

# Molecular target: T3, murine IL-21R extracellular domain His-Flag fusion protein (murine, UniProt Q9JHX3 20-237)
# T3 construct: Biotinylated in the ELISAs; also called mIL-21R-H/F; murine IL-21R-H/F
# Experiment: SPR, Ab captured on anti-human IgG
# Method: as §3, §4
Binder,Kd [nM],koff [s⁻¹],kon [M⁻¹ s⁻¹]
B1,50.8,0.00508,99900
B2,49.2,0.00549,112000
B3,72,0.0153,212000
B4,64.5,0.00493,76500
B5,44.2,0.00434,98100
B6,15.7,0.00331,211000
B7,16.7,0.00332,199000
B8,68.8,0.0207,301000

# Molecular target: T4, murine IL-21R expressed on cells (murine, UniProt Q9JHX3 20-529)
# Experiment: cell-based or functional assay
row,Binder,Murine IL-21R-BaF3 Neutralization IC50 [nM]
1,B3,177
2,B4,0.34
3,B6,0.05
4,B7,0.04

# Molecular target: T5, human IL-21R expressed on cells (human, UniProt Q9HBE5 20-538)
# Experiment: cell-based or functional assay
# T5 sequence (Q9HBE5 20-538 limits assumed): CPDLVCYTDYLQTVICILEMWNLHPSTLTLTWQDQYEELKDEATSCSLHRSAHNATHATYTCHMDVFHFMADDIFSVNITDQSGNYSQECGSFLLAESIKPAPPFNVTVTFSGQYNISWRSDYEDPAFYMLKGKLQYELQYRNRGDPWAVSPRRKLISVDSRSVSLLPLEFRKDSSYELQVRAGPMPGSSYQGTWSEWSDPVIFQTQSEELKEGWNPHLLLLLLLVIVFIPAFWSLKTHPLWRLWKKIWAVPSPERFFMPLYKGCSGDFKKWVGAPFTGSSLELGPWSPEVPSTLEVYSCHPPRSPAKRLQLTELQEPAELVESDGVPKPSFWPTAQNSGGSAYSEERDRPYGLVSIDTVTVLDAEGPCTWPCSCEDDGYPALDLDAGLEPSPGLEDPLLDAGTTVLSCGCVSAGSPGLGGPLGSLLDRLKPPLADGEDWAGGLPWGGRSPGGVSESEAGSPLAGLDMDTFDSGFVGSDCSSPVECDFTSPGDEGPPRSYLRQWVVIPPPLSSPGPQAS
Binder,Human IL-21R-BaF3 Neutralization IC50 [nM],Human IL-21R-TF1 Neutralization IC50 [nM]
B3,1.71,14
B4,0.56,1.63
B6,0.3,2.32
B7,0.68,6.67

# Molecular target: T2, human IL-21R extracellular domain …
# Experiment: SPR, Ab captured on anti-human IgG, replicate experiment
# Method: as §3, §4
Binder,Kd [nM],koff [s⁻¹],kon [M⁻¹ s⁻¹]
B1,0.436,0.000102,233000
B3,4.4,0.00134,304000
B4,0.394,9.76e-05,248000
B5,0.329,7.83e-05,238000
B6,0.272,7.42e-05,273000
B7,1.51,0.000305,202000
B8,0.213,9.34e-05,

# Molecular target: T4, murine IL-21R expressed on cells
# Experiment: cell-based or functional assay
# Remark: another data set of the same source
row,Binder,Neutralization of murine primary T cell Proliferation IC50 [nM]
1,B2,4.92
2,B3,> 85
3,B4,0.13
4,B5,1.79
5,B6,0.61
6,B7,0.02
7,B8,0.85

# Molecular target: T6, cynomolgus monkey IL-21R expressed on cells (cynomolgus monkey, UniProt G7Q0S8 41-559)
# T6 construct: whole, on cells
# Experiment: cell-based ELISA on CHO cells transiently expressing cynomolgus monkey IL-21R; HRP anti-human IgG, A450
# Method: as §1, §2
row,Binder,EC50 (read off the curve) [nM]
1,B1,~0.7
2,B2,~0.5
3,B3,~0.4
4,B4,~1
5,B5,~0.7
6,B6,~0.6
7,B7,~0.5
8,B8,~0.7

# Molecular target: T7, rat IL-21R expressed on cells (rat)
# T7 construct: whole, on cells
# Experiment: cell-based ELISA on CHO cells transiently expressing rat IL-21R; HRP anti-human IgG, A450
# Method: as §1, §2
row,Binder,EC50 (read off the curve) [nM]
1,B2,~0.4
2,B4,~0.7
3,B6,~1
4,B7,~1
5,B8,~0.8

# Molecular target: T5, human IL-21R expressed on cells
# Experiment: cell-based or functional assay
# Remark: another data set of the same source
row,Binder,Neutralization of human primary T cell Proliferation IC50 [nM]
1,B1,0.02
2,B2,0.06
3,B3,1.42
4,B4,0.04
5,B5,0.03
6,B6,0.03
7,B7,0.06
8,B8,0.08
